Measurements as given in patent US20250186623A1, “EXPRESSION SYSTEM FOR THE TREATMENT OF CANCER” (FUNDACION PARA LA INVESTIGACION MEDICA APLICADA, priority 2022, published 2025).

Columns and labels:
[1] = tested on: B16 cells transduced with AAV8-ISREx4-LucmiR122T; experiment: Radiation and IFN signaling on activation of the ISREx4 promoter (luciferase); type: cell-based, murine
From the text: The ISREx4 promoter responds to interferon downstream signaling.

[2] = tested on: MC38 cells stably expressing hSTINGmut; experiment: Luciferase activity under synthetic promoters (pGL3-basic plasmids); type: cell-based, murine; conditions: DMXAA 50 μg/mL, 48 h
From the text: (§1) As described above, the specificity of the promoters used in the previous experiments was somewhat poor. […] In order to achieve this, synthetic promoters have been generated.
(§2) Seven different promoters were generated, namely short STATx4 (4 STAT motifs separated by 6 nucleotides according to SEQ ID NO: 26), IRSF3×4 (4 IRSF3 motifs separated by 20 nucleotides according to SEQ ID NO: 27), short IRSF3×4 (4 IRSF3 motifs separated by 6 nucleotides according to SEQ ID NO: 28), ISREx4 (4 ISRE motifs separated by 20 nucleotides according to SEQ ID NO: 12), short ISREx4 (4 ISRE motifs separated by 6 nucleotides according to SEQ ID NO: 13), NFκBx4 (4 NFκB motifs separated by 20 nucleotides according to SEQ ID NO: 29) and short NFκBx4 (4 NFκB motifs separated by 6 nucleotides according to SEQ ID NO: 30). […] In addition, a plasmid containing the luciferase sequence under the control of the murine IFN-β-promoter (mIFN-β) and a plasmid containing the luciferase sequence under the control of CXCL10-promoter were used as controls. Either MC38 cells or human HEK293T cells, both which stably expressed hSTINGmut as described above (example 1), were transfected with the indicated plasmids using Lipofectamine3000 according to the manufacturers protocol, whereas a negative control was mock-transfected (Basic).

[3] = tested on: MC38 cell lines stably expressing hSTINGmut; experiment: Luciferase activity under modified IFN-β promoters; type: cell-based, murine
From the text: Therefore, the objective of this experiment was to examine the specificity of different modified IFN-β promoters in their response to DMXAA-induced STING activity.
To this end, five different modifications of the IFN-β promoter (short IFN-β A according to SEQ ID NO: 18, short IFN-β B according to SEQ ID NO: 19, short IFN-β C according to SEQ ID NO: 20, short IFN-β D according to SEQ ID NO: 21, short IFN-β E according to SEQ ID NO: 22) were designed. Lentiviral vectors encoding luciferase under the control of these five different promoters were constructed. […] After another 3 h (FIG. 3A) or 3 and 6 h (FIGS. 3B, 3C, 3D) or 6 h (FIGS. 3E, 3F, 3G and 3H), cells were homogenized in 50 μL of Passive Lysis Buffer (Promega) and frozen in dry ice. After 3 cycles of thaw-vortex-freeze to ensure lysis, cells were spun at 12000 g for 2 min at 4° C. 20 μL were added to a luminometer 96-well plate and luciferase activity was determined using the respective substrates D-Luciferin and Coelenterazine.

[4] = tested on: human HEK293T cells stably expressing hSTINGmut; experiment: Luciferase activity under synthetic promoters (pGL3-basic plasmids); type: cell-based; conditions: for luciferase activity / inducibility upon DMXAA: DMXAA 50 μg/mL, 48 h; for leakage in the absence of DMXAA: vehicle
From the text: as §1, §2

[5] = tested on: MC38 cell lines stably expressing hSTINGmut; experiment: scIL-12 mRNA (qPCR) and secreted protein (ELISA) under STING-activity dependent promoters; type: cell-based, murine; conditions: for scIL-12 mRNA or protein expression upon DMXAA treatment: DMXAA 50 μg/mL
From the text: The CXCL9-promoter and the CXCL10-promoter from experiment 2, and a full length IFN-β-promoter (IFN-β according to SEQ ID NO: 25) were used for the following experiment. To this end, lentiviral vectors encoding murine scIL-12 under the control of these three different promoters were constructed. […] After the indicated time points, cells were harvested. The cell lysate was used to measure scIL-12 mRNA expression by qPCR as described before (example 1, experiment 1), whereas the supernatant was used to measure secreted scIL-12 protein in NUNC MaxiSorp flat-bottom 96-well plates using an ELISA assay kit (OptEIA, Mouse IL-12 (p70), BD Biosciences, San Diego, CA USA), following manufacturer's instructions.

[6] = tested on: MC38 cell lines stably expressing hSTINGmut; experiment: Luciferase activity under chemokine promoters; type: cell-based, murine; conditions: for luciferase activity upon DMXAA administration: DMXAA 50 μg/mL, 3 or 6 h; for luciferase activity in the absence of DMXAA (leaky expression): vehicle
From the text: Therefore, the objective of this experiment was to examine the specificity of these promoters in their response to DMXAA-induced STING activity.
The CXCL9-promoter (CXCL9 according to SEQ ID NO: 23) and the CXCL10-promoter (CXCL10 according to SEQ ID NO: 24) were used for the following experiment. To this end, lentiviral vectors encoding luciferase under the control of these two different promoters were constructed. […] In addition, the lentiviral vectors encoding the short IFN-β A promoter, the short IFN-β B promoter, the short IFN-β C promoter described in experiment 1 were used as a comparison. […] After another 3 or 6 h, cells were harvested and luciferase activity measured as described in experiment 1.

[7] = 1,000 IU interferon alone (0 Gy)
[8] = 1,000 IU interferon together with radiation (8 Gy)

IFN-α
luciferase activity [1, 7]: significantly increased luciferase activity | luciferase activity [1, 8]: induced luciferase activity dramatically

B1: short STAT-promoter: 4 STAT motifs separated by 6 nucleotides according to SEQ ID NO: 26 (nucleic acid)
DNA: ATCTCTGCGATGAACCTCACTTCGCTAGAAATCTCTGCGATGAACCTCACTTCGCTAGAAATATCTCTGCGATGAACCTCACTTCGCTAGAAATCTCTGCGATGAACCTCACTTCGCTAGAAGTGCCTCTTATGATCTGGATCTCGAGCCATGGTCGAGGCCTGTAGGCGTGTACGGTGGGAGGCTTATATAAGCAGAGCTC
modifications: misc_feature 1..202 STATx4
luciferase activity / inducibility upon DMXAA [2]: poor inducibility

B2: short IFN-β A promoter: modification of the IFN-β promoter according to SEQ ID NO: 18 (nucleic acid)
DNA: CAGGAGCTTGAATAAAATGAATATTAGAAGCTGTTAGAATAAGAGAAAATGACAGAGGAAAACTGAAAGGGAGAACTGAAAGTGGGAAATTCCTCTGAGGCAGAAAGGACCATCCCTTATAAATAGCACAGGCCATGAAGGAAGATCATTCTCACTGCAGCCTTTGACAGCCTTTGCCTCATCTTGCAGGTAGCAGCCGACACCAGCCTGGCTTCCATC
modifications: misc_feature 1..219 short IFNb A-promoter
luciferase activity upon DMXAA treatment ([3]; DMXAA 50 μg/mL, 3 h): highest luciferase activity | luciferase activity in the absence of DMXAA (leaky expression) ([3]; vehicle): significant luciferase activity

B3: ISREx4-promoter: 4 ISRE motifs separated by 20 nucleotides according to SEQ ID NO: 12 (nucleic acid)
DNA: ATCTCTGCGATGAACCTCACAGTTTCGCTTTCTATCTCTGCGATGAACCTCACAGTTTCGCTTTCTATCTCTGCGATGAACCTCACAGTTTCGCTTTCTATCTCTGCGATGAACCTCACAGTTTCGCTTTCTGTGCCTCTTATGATCTGGATCTCGAGCCATGGTCGAGGCCTGTAGGCGTGTACGGTGGGAGGCTTATATAAGCAGAGCTC
modifications: misc_feature 1..212 ISREx4
luciferase activity / inducibility upon DMXAA [4]: highest inducibility | leakage in the absence of DMXAA [4]: undetectable leakage

B4: CXCL10-promoter: CXCL10-promoter according to SEQ ID NO: 24 (nucleic acid, listed as Mus musculus)
DNA: TCTAACTGTTCACTAAGTTGTATAGACTTTGGATCTGGCTAAATTTGGCGTGTGATTTTTTTTTAAAGTTTATTCCAAGTATTTTATAATAAAGCATATGAAGTAAAAAGCAAAAATAAACAGTGTAAACACAACAAATGTAAAAACCATGGTTAGAACCTGACTTAGATATCAGTTCTGTGTTTTATTTATGAGAGAAGGAAGATGAGAATTAAAGCCATTTCCAGACTTATTCTGCAAGGCACTGCATCTGATTTCTCAAACAGCTCACGCTTTGGAAAGTGAAACTTACCTCACTCGTTAAAAATTAAAAGGAGCACAAGAGGGGAGAGGGAAATTCCAAGTTCATGGGTCACAATAAACACAAGCAATGCCCTCGGTTTACAGGGGACTTCCCTCGGGTTGCGGAGCCTTGCTGAGTCATCTCCAAAGTCAGCCAATCAGGACTCAGGGAGGGAAACTCTTTGCAGATAAATACTCCTCAGCAGCCGGCACTCGAGAAGCGCTTCATCCACCGCTGAGAGACATCCCGAGCCAACCTTCCGGAAGCCTCCCCATCAGCACC
modifications: misc_feature 1..565 CXCL10-promoter
scIL-12 mRNA or protein expression upon DMXAA treatment [5]: highly upregulated | scIL-12 production in the absence of DMXAA (leakage) ([5]; vehicle): significant leakage | luciferase activity upon DMXAA administration [6]: significantly higher luciferase activities | luciferase activity in the absence of DMXAA (leaky expression) [6]: significant luciferase activity | luciferase activity / inducibility upon DMXAA [4]: highest inducibility | leakage in the absence of DMXAA [4]: considerable leakage

B5: IFN-γ: exogenously added interferon, 1,000 IU (protein, UniProt P01579 24-161, looked up)
Interferon gamma: QDPYVKEAENLKKYFNAGHSDVADNGTLFLGILKNWKEESDRKIMQSQIVSFYFKLFKNFKDDQSIQKSVETIKEDMNVKFFNSNKKKRDDFEKLTNYSVTDLNVQRKAIHELIQVMAELSPAAKTGKRKRSQMLFRG
luciferase activity [1, 7]: significantly increased luciferase activity | luciferase activity [1, 8]: induced luciferase activity dramatically

B6: CXCL9-promoter: CXCL9-promoter according to SEQ ID NO: 23 (nucleic acid, listed as Mus musculus)
DNA: GACACAGACATCTCGTGAAACATCTGGAAAAGGTAGCAGGGAACGGGACAGCAGTAGCTTATGCAACTAATCTAGCAATTACAATGATAGGAAACTGTAGCCACGGTGAGACGAAATGGATTTACCCTCAACAAATTAAGAAGCTTTGACTTGTGAGGAAAGGCAGTTTGAGTCGCCATATAGTGTCATGTCCCACGTGGGAAGTACATCTCCAACCTTCATTGTACAACATTAATATAGTCATTGTATAATCTATTCCACATCCAGGTAGCAACTTTGCCTGGGGGTGGTTTCACATCCCTTACTATAAACTCCCCGTTTATGTGAAATGGAAGTAGAACATGCAGAAATTCCCTGGGATCTGAGAGTAGGGTTTTCCCCAGGACGATCAATTTGTGGTTAGTTTAGTTCTTCTAGGTCAGCTGAGGAGACCAGCCAATCAGAGACGGGAAGGAAAAGGGATTTCCTAAATAAATATGATCCCCAAGAACATGCTCTCTAAAGACATTCTCGGACTTCACTCCAACACAGTGACTCAATAGAACTCAGCTCTGCC
modifications: misc_feature 1..556 CXCL9-promoter
scIL-12 mRNA or protein expression upon DMXAA treatment [5]: poor | luciferase activity upon DMXAA administration [6]: significantly higher luciferase activities | luciferase activity in the absence of DMXAA (leaky expression) [6]: significant luciferase activity

B7: IFN-β-promoter: full length IFN-β-promoter according to SEQ ID NO: 25 (nucleic acid, listed as Mus musculus)
DNA: CCAGGATGTGGGGTTCTCTCCCAAAGGGAGCTATGGCCCATTGATGTGCCATTTCTCTTATAGTACACTATTGTAAGCCCCCTGGGAGCTCACAGAGACCCTCTCCCACCATCCCACTATTTCAAAGGGCAGCAGCTGTGCCATCCTTTCAGGATGAGCAGCTACTCTGCCTGGCTTTTCAGTGGACACTTTGGCTGTTTGAGAGTTCTTTTATCTTCAGGGCTGTCTCCTTTCTGTTCTTCTCTCCTGGATATTTCTCTTCCTTTGCTCCAGCAATTGGTGAAACTGTACAAGATTTTATAAATCCTTAGTTTGTATATATTTTAACCCAGTACATAGCATATAAAATAGCCAGGAGCTTGAATAAAATGAATATTAGAAGCTGTTAGAATAAGAGAAAATGACAGAGGAAAACTGAAAGGGAGAACTGAAAGTGGGAAATTCCTCTGAGGCAGAAAGGACCATCCCTTATAAATAGCACAGGCCATGAAGGAAGATCATTCTCACTGCAGCCTTTGACAGCCTTTGCCTCATCTTGCAGGTAGCAGCCGACACCAGCCTGGCTTCCATC
modifications: misc_feature 1..571 IFNb1-promoter
scIL-12 mRNA or protein expression upon DMXAA treatment [5]: poor
